Data on 3 substances can be found in publication PMC7017353, “Delineating the Molecular Basis of the Calmodulin–bMunc13-2 Interaction by Cross-Linking/Mass Spectrometry—Evidence for a Novel CaM Binding Motif in bMunc13-2” (Cells, 2020).

By Kd is commonly meant the constant that tells how readily two partners part at equilibrium. Lower therefore signals higher affinity.

Assay [1] concerns the target CaM (bovine brain) (bovine) (UniProt P62157). Description: cross-linking; chemical cross-linking (BS3, DSBU 1 mM; s-GMBS in two steps) of CaM (bovine brain, 10 µM) with 10 µM segment-A; 20 mM HEPES, 230 mM NaCl, 0.5 mM TCEP, 7.5% glycerol, pH 7.2, 25 °C; 750 nM and 1 mM Ca2+; SDS-PAGE and LC-MS/MS.
For assay [2], the target named is CaM (source not told for this experiment) (UniProt P62157). Briefly: native gel or EMSA; native gel electrophoresis of the CaM/segment-A complex (Figure S5). On the technique in general: In EMSA bound probe runs differently from free probe, usually more slowly.
In assay [3] the target is Photo-Met labeled CaM (UniProt P0DP23). Briefly: cross-linking; photo-cross-linking of photo-Met-labeled CaM (10 µM) with 10 µM segment-A, -B or -C; 20 mM HEPES, 250 mM NaCl, 0.5 mM TCEP, 7.5% glycerol, pH 7.2, 25 °C; free Ca2+ 75 nM to 1 mM (EGTA system); UV-A 360 nm; SDS-PAGE and LC-MS/MS.
The target of assay [4] is CaM (source not told for this experiment) (UniProt P62157). Briefly: native MS; 10 µM CaM and segment-A in 300 mM ammonium acetate pH 7.0; residual Ca2+ around 5 µM.
In assay [5] the target is Photo-Met labeled CaM (UniProt P0DP23). Briefly: cross-linking; photo-cross-linking of photo-Met-labeled CaM with segment-B, SDS-PAGE analysis (data not shown).
The target in assay [6] is biotinylated photo-Met-labeled CaM (UniProt P0DP23). Description: SPR; biotinylated photo-Met-CaM immobilised on streptavidin on a PEG-biotin chip; segment-C and variants injected at 0.1–1 µM in 20 mM HEPES, 230 mM NaCl, 0.5 mM TCEP, pH 7.2; 30 µL/min.

Consider “bMunc13-2 segment-A (aa 367–780) (from UniProt Q62769-2 367-780) (domain or fragment)”, for which the stoichiometry N (segment-A per CaM) (in assay [1]; in assay [2]; in the assay with Photo-Met labeled CaM [3]; in assay [4]) was 1 in each case.

Consider “bMunc13-2 segment-B (aa 367–903) (from UniProt Q62769-2 367-903) (domain or fragment)”, for which the stoichiometry N (segment-B per CaM) with Photo-Met labeled CaM [5] is 1.

In the case of “bMunc13-2 segment-C (aa 703–742) (peptide)”, the stoichiometry N (segment-C per CaM) in the assay with Photo-Met labeled CaM [3] is 1. The Kd in assay [6] was 0.159 µM.
